# Data as given in US20230235013A1 (MABSOLVE, published 2023).
# Assays:
# [1] = biological target: T1, Histidine-tagged recombinant human FcγRI (CD64) (human, UniProt P12314 16-288, limits assumed); test: SPR, His-FcγRI captured; mean;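 also: biacore T200 SPR at 25 °C, anti-His surface capturing FcγRI, Fc-variant antibodies injected at 100 µg/mL for 1 min, signal near injection end minus third buffer blank, three repeats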
# T1 construct: bought
# [2] = biological target: T1, Histidine-tagged recombinant human …; test: SPR, His-FcγRI captured; Expt 1;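 also: SPR at 25 °C on anti-His antibody chip capturing FcγRI, Fc-variant antibodies injected at 100 µg/mL for 1 min, signal near end of injection minus buffer blank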
# [3] = biological target: T1, Histidine-tagged recombinant human …; test: SPR, His-FcγRI captured; Expt 2;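 also: biacore T200 SPR at 25 °C, Fc-variant antibodies at 100 µg/mL flowed 1 min over anti-His-captured receptor, signal read near injection end minus third buffer blank; antibody analyte injected at 100 µg/mL for 1 min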
# [4] = biological target: T1, Histidine-tagged recombinant human …; test: SPR, His-FcγRI captured; Expt 3;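 also: biacore T200 SPR at 25 °C, Fc-variant antibodies at 100 µg/mL flowed 1 min over anti-His-captured FcγRI, signal taken just before injection end minus a buffer blank cycle; antibody analyte injected at 100 µg/mL for 1 min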
Binder,"Corrected response (RU), Mean [1] [RU]",Corrected response (RU) [2] [RU],Corrected response (RU) [3] [RU],Corrected response (RU) [4] [RU]
"anti-CD20 human IgG1 L234A/L235T/G236R (antibody, also called 2-5; 1-15) heavy: not shown light: QIVLSQSPAILSASPGEKVTMTCRASSSVSYIHWFQQKPGSSPKPWIYATSNLASGVPVRFSGSGSGTSYSLTISRVEAEDAATYYCQQWTSNPPTFGGGTKLEIKRTVAAPSVFIFPPSDEQLKSGTASVVCLLNNFYPREAKVQWKVDNALQSGNSQESVTEQDSKDSTYSLSSTLTLSKADYEKHKVYACEVTHQGLSSPVTKSFNRGEC",14.3,14.6,11.2,17.3
"anti-CD20 human IgG1 L234E/L235V/G236R (antibody, also called 2-16; 1-46) heavy: QVQLQQPGAELVKPGASVKMSCKASGYTFTSYNMHWVKQTPGRGLEWIGAIYPGNGDTSYNQKFKGKATLTADKSSSTAYMQLSSLTSEDSAVYYCARSTYYGGDWYFNVWGAGTTVTVSSASTKGPSVFPLAPSSKSTSGGTAALGCLVKDYFPEPVTVSWNSGALTSGVHTFPAVLQSSGLYSLSSVVTVPSSSLGTQTYICNVNHKPSNTKVDKKVEPKSCDKTHTCPPCPAPEEVRGPSVFLFPPKPKDTLMISRTPEVTCVVVDVSHEDPEVKFNWYVDGVEVHNAKTKPREEQYNSTYRVVSVLTVLHQDWLNGKEYKCKVSNKALPAPIEKTISKAKGQPREPQVYTLPPSRDELTKNQVSLTCLVKGFYPSDIAVEWESNGQPENNYKTTPPVLDSDGSFFLYSKLTVDKSRWQQGNVFSCSVMHEALHNHYTQKSLSLSPGK light: QIVLSQSPAILSASPGEKVTMTCRASSSVSYIHWFQQKPGSSPKPWIYATSNLASGVPVRFSGSGSGTSYSLTISRVEAEDAATYYCQQWTSNPPTFGGGTKLEIKRTVAAPSVFIFPPSDEQLKSGTASVVCLLNNFYPREAKVQWKVDNALQSGNSQESVTEQDSKDSTYSLSSTLTLSKADYEKHKVYACEVTHQGLSSPVTKSFNRGEC",5.9,4.8,5.5,7.4
"anti-CD20 human IgG1 L234D/L235Q/G236R (antibody, also called 2-9; 1-27) heavy: QVQLQQPGAELVKPGASVKMSCKASGYTFTSYNMHWVKQTPGRGLEWIGAIYPGNGDTSYNQKFKGKATLTADKSSSTAYMQLSSLTSEDSAVYYCARSTYYGGDWYFNVWGAGTTVTVSSASTKGPSVFPLAPSSKSTSGGTAALGCLVKDYFPEPVTVSWNSGALTSGVHTFPAVLQSSGLYSLSSVVTVPSSSLGTQTYICNVNHKPSNTKVDKKVEPKSCDKTHTCPPCPAPEDQRGPSVFLFPPKPKDTLMISRTPEVTCVVVDVSHEDPEVKFNWYVDGVEVHNAKTKPREEQYNSTYRVVSVLTVLHQDWLNGKEYKCKVSNKALPAPIEKTISKAKGQPREPQVYTLPPSRDELTKNQVSLTCLVKGFYPSDIAVEWESNGQPENNYKTTPPVLDSDGSFFLYSKLTVDKSRWQQGNVFSCSVMHEALHNHYTQKSLSLSPGK light: QIVLSQSPAILSASPGEKVTMTCRASSSVSYIHWFQQKPGSSPKPWIYATSNLASGVPVRFSGSGSGTSYSLTISRVEAEDAATYYCQQWTSNPPTFGGGTKLEIKRTVAAPSVFIFPPSDEQLKSGTASVVCLLNNFYPREAKVQWKVDNALQSGNSQESVTEQDSKDSTYSLSSTLTLSKADYEKHKVYACEVTHQGLSSPVTKSFNRGEC",6.2,5.7,5.9,7.1
"anti-CD20 human IgG1 L234E/L235I/G236R (antibody, also called 2-14; 1-37) heavy: QVQLQQPGAELVKPGASVKMSCKASGYTFTSYNMHWVKQTPGRGLEWIGAIYPGNGDTSYNQKFKGKATLTADKSSSTAYMQLSSLTSEDSAVYYCARSTYYGGDWYFNVWGAGTTVTVSSASTKGPSVFPLAPSSKSTSGGTAALGCLVKDYFPEPVTVSWNSGALTSGVHTFPAVLQSSGLYSLSSVVTVPSSSLGTQTYICNVNHKPSNTKVDKKVEPKSCDKTHTCPPCPAPEEIRGPSVFLFPPKPKDTLMISRTPEVTCVVVDVSHEDPEVKFNWYVDGVEVHNAKTKPREEQYNSTYRVVSVLTVLHQDWLNGKEYKCKVSNKALPAPIEKTISKAKGQPREPQVYTLPPSRDELTKNQVSLTCLVKGFYPSDIAVEWESNGQPENNYKTTPPVLDSDGSFFLYSKLTVDKSRWQQGNVFSCSVMHEALHNHYTQKSLSLSPGK light: QIVLSQSPAILSASPGEKVTMTCRASSSVSYIHWFQQKPGSSPKPWIYATSNLASGVPVRFSGSGSGTSYSLTISRVEAEDAATYYCQQWTSNPPTFGGGTKLEIKRTVAAPSVFIFPPSDEQLKSGTASVVCLLNNFYPREAKVQWKVDNALQSGNSQESVTEQDSKDSTYSLSSTLTLSKADYEKHKVYACEVTHQGLSSPVTKSFNRGEC",10.4,11.6,8.1,11.7
"anti-CD20 human IgG1 L234D/L235T/G236R (antibody, also called 2-11; 1-30) heavy: QVQLQQPGAELVKPGASVKMSCKASGYTFTSYNMHWVKQTPGRGLEWIGAIYPGNGDTSYNQKFKGKATLTADKSSSTAYMQLSSLTSEDSAVYYCARSTYYGGDWYFNVWGAGTTVTVSSASTKGPSVFPLAPSSKSTSGGTAALGCLVKDYFPEPVTVSWNSGALTSGVHTFPAVLQSSGLYSLSSVVTVPSSSLGTQTYICNVNHKPSNTKVDKKVEPKSCDKTHTCPPCPAPEDTRGPSVFLFPPKPKDTLMISRTPEVTCVVVDVSHEDPEVKFNWYVDGVEVHNAKTKPREEQYNSTYRVVSVLTVLHQDWLNGKEYKCKVSNKALPAPIEKTISKAKGQPREPQVYTLPPSRDELTKNQVSLTCLVKGFYPSDIAVEWESNGQPENNYKTTPPVLDSDGSFFLYSKLTVDKSRWQQGNVFSCSVMHEALHNHYTQKSLSLSPGK light: QIVLSQSPAILSASPGEKVTMTCRASSSVSYIHWFQQKPGSSPKPWIYATSNLASGVPVRFSGSGSGTSYSLTISRVEAEDAATYYCQQWTSNPPTFGGGTKLEIKRTVAAPSVFIFPPSDEQLKSGTASVVCLLNNFYPREAKVQWKVDNALQSGNSQESVTEQDSKDSTYSLSSTLTLSKADYEKHKVYACEVTHQGLSSPVTKSFNRGEC",4.3,3,4.3,5.5
"anti-CD20 human IgG1 L234D/L235H/G236R (antibody, also called 2-6; 1-21) heavy: QVQLQQPGAELVKPGASVKMSCKASGYTFTSYNMHWVKQTPGRGLEWIGAIYPGNGDTSYNQKFKGKATLTADKSSSTAYMQLSSLTSEDSAVYYCARSTYYGGDWYFNVWGAGTTVTVSSASTKGPSVFPLAPSSKSTSGGTAALGCLVKDYFPEPVTVSWNSGALTSGVHTFPAVLQSSGLYSLSSVVTVPSSSLGTQTYICNVNHKPSNTKVDKKVEPKSCDKTHTCPPCPAPEDHRGPSVFLFPPKPKDTLMISRTPEVTCVVVDVSHEDPEVKFNWYVDGVEVHNAKTKPREEQYNSTYRVVSVLTVLHQDWLNGKEYKCKVSNKALPAPIEKTISKAKGQPREPQVYTLPPSRDELTKNQVSLTCLVKGFYPSDIAVEWESNGQPENNYKTTPPVLDSDGSFFLYSKLTVDKSRWQQGNVFSCSVMHEALHNHYTQKSLSLSPGK light: QIVLSQSPAILSASPGEKVTMTCRASSSVSYIHWFQQKPGSSPKPWIYATSNLASGVPVRFSGSGSGTSYSLTISRVEAEDAATYYCQQWTSNPPTFGGGTKLEIKRTVAAPSVFIFPPSDEQLKSGTASVVCLLNNFYPREAKVQWKVDNALQSGNSQESVTEQDSKDSTYSLSSTLTLSKADYEKHKVYACEVTHQGLSSPVTKSFNRGEC",5.2,4.3,3.8,7.7
"anti-CD20 human IgG1 L234E/L235H/G236R (antibody, also called 2-13; 1-36) heavy: QVQLQQPGAELVKPGASVKMSCKASGYTFTSYNMHWVKQTPGRGLEWIGAIYPGNGDTSYNQKFKGKATLTADKSSSTAYMQLSSLTSEDSAVYYCARSTYYGGDWYFNVWGAGTTVTVSSASTKGPSVFPLAPSSKSTSGGTAALGCLVKDYFPEPVTVSWNSGALTSGVHTFPAVLQSSGLYSLSSVVTVPSSSLGTQTYICNVNHKPSNTKVDKKVEPKSCDKTHTCPPCPAPEEHRGPSVFLFPPKPKDTLMISRTPEVTCVVVDVSHEDPEVKFNWYVDGVEVHNAKTKPREEQYNSTYRVVSVLTVLHQDWLNGKEYKCKVSNKALPAPIEKTISKAKGQPREPQVYTLPPSRDELTKNQVSLTCLVKGFYPSDIAVEWESNGQPENNYKTTPPVLDSDGSFFLYSKLTVDKSRWQQGNVFSCSVMHEALHNHYTQKSLSLSPGK light: QIVLSQSPAILSASPGEKVTMTCRASSSVSYIHWFQQKPGSSPKPWIYATSNLASGVPVRFSGSGSGTSYSLTISRVEAEDAATYYCQQWTSNPPTFGGGTKLEIKRTVAAPSVFIFPPSDEQLKSGTASVVCLLNNFYPREAKVQWKVDNALQSGNSQESVTEQDSKDSTYSLSSTLTLSKADYEKHKVYACEVTHQGLSSPVTKSFNRGEC",5.1,4.6,4.5,6.2
"anti-CD20 human IgG1 L234E/L235D/G236R (antibody, also called 2-12; 1-33) heavy: QVQLQQPGAELVKPGASVKMSCKASGYTFTSYNMHWVKQTPGRGLEWIGAIYPGNGDTSYNQKFKGKATLTADKSSSTAYMQLSSLTSEDSAVYYCARSTYYGGDWYFNVWGAGTTVTVSSASTKGPSVFPLAPSSKSTSGGTAALGCLVKDYFPEPVTVSWNSGALTSGVHTFPAVLQSSGLYSLSSVVTVPSSSLGTQTYICNVNHKPSNTKVDKKVEPKSCDKTHTCPPCPAPEEDRGPSVFLFPPKPKDTLMISRTPEVTCVVVDVSHEDPEVKFNWYVDGVEVHNAKTKPREEQYNSTYRVVSVLTVLHQDWLNGKEYKCKVSNKALPAPIEKTISKAKGQPREPQVYTLPPSRDELTKNQVSLTCLVKGFYPSDIAVEWESNGQPENNYKTTPPVLDSDGSFFLYSKLTVDKSRWQQGNVFSCSVMHEALHNHYTQKSLSLSPGK light: QIVLSQSPAILSASPGEKVTMTCRASSSVSYIHWFQQKPGSSPKPWIYATSNLASGVPVRFSGSGSGTSYSLTISRVEAEDAATYYCQQWTSNPPTFGGGTKLEIKRTVAAPSVFIFPPSDEQLKSGTASVVCLLNNFYPREAKVQWKVDNALQSGNSQESVTEQDSKDSTYSLSSTLTLSKADYEKHKVYACEVTHQGLSSPVTKSFNRGEC",12.3,15.1,9.4,12.3
